Laboratory results: publication doi:10.1101/2021.08.19.456998 (2021)
Where no end group is shown, it is not given here. The star is where a group is joined. Biotin = O=C1N[C@H]2[C@H](CS[C@H]2CCCCC(=O)*)N1

Key:
[1] = biological target: T1, cleaved OSR1 (human OSR1 CCT domain, residues 423-527, tags removed with TEV protease) (human); assay: waveRAPID, 1:1 model
[2] = biological target: T1, cleaved OSR1 (human OSR1 CCT domain, …); assay: multicycle kinetics, 1:1 model
[3] = biological target: T2, cleaved SPAK (human SPAK CCT domain, residues 441-545, tags removed with TEV protease) (human); assay: waveRAPID, heterogeneous ligand model, site 1
[4] = biological target: T2, cleaved SPAK (human SPAK CCT domain, …); assay: waveRAPID, heterogeneous ligand model, second site
[5] = biological target: T2, cleaved SPAK (human SPAK CCT domain, …); assay: waveRAPID, heterogeneous ligand model, second site; remark: listed apart in the source
[6] = biological target: T3, biotin-SPAK (uncleaved human SPAK CCT domain, residues 441-545, biotinylated on the AviTag) (human, biotin on the lysine of the AviTag (…)); assay: waveRAPID
[7] = biological target: T4, biotin-OSR (uncleaved human OSR1 CCT domain, residues 423-527, biotinylated on the AviTag) (human, biotin on the lysine of the AviTag (…)); assay: waveRAPID
[8] = biological target: T3, biotin-SPAK (uncleaved human SPAK CCT …); assay: multicycle kinetics
[9] = biological target: T4, biotin-OSR (uncleaved human OSR1 CCT …); assay: multicycle kinetics

T1 sequence (chain, as listed by the source): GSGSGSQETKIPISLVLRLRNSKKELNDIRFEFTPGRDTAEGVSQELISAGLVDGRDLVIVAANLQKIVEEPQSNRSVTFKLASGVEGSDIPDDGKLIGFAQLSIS
T4 sequence (chain, as listed by the source): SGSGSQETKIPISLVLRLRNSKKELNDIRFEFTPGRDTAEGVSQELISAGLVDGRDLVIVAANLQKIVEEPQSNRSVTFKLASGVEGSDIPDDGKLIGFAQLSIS

Binder	koff [1] [s⁻¹]	koff [2] [s⁻¹]	koff [3] [s⁻¹]	koff [4] [s⁻¹]	Kd [5] [nM]	koff [6] [s⁻¹]	koff [7] [s⁻¹]	koff [8] [s⁻¹]	koff [9] [s⁻¹]
{Biotin-C6}-SEEGKPQLVGRFQVTSSK [Biotin-C6-SEEGKPQLVGRFQVTSSK (N-terminally biotinylated 18-mer RFQV peptide derived from WNK4)]	0.662	1.13	0.584	6.98e-05	4.25				
SEEGKPQLVGRFQVTSSK [18-mer RFQV peptide derived from WNK4 (SEEGKPQLVGRFQVTSSK), unbiotinylated]						0.614	0.56	0.327	0.68
